Test results published in article PMC10569242, “VvWRKY5 enhances white rot resistance in grape by promoting the jasmonic acid pathway”.

T1: VvWRKY5-HIS (Vitis vinifera, UniProt A0ABY9BGE3 8-330)
T1 sequence: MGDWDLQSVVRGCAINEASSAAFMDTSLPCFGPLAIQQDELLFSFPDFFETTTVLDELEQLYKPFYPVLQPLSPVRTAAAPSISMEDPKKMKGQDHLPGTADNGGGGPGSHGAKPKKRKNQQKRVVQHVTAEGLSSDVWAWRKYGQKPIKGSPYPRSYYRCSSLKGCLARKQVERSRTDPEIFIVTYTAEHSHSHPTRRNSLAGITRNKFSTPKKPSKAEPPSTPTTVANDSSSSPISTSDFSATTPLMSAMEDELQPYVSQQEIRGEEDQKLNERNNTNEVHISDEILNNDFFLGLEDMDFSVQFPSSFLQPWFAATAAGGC

B1: VvJAZ2 W-box probe (dsDNA)
DNA 1: TAAATCCTCACATCGGGTCAAGGATCGAGTATGC
DNA 2: GCATACTCGATCCTTGACCCGATGTGAGGATTTA
B2: VvMYC2 W-box probe (dsDNA)
DNA 1: TAGGGTGGGGATTTGACCTGGGTCTGGAGATTCG
DNA 2: CGAATCTCCAGACCCAGGTCAAATCCCCACCCTA

Molecular target: T1, VvWRKY5-HIS
Assay: EMSA; unlabeled cold probe competitor 100x/200x; LightShift Chemiluminescent EMSA Kit (Beyotime); buffer, salt, pH and temperature not stated
Settings: protein: recombinant; tags: His (pET-32a(+) fusion); blunt

Binder | binding result
B1 | binds
B2 | binds
